Source: publication PMC9910501

Biological target: OsASI1-BAH (residues 19 to 183) (rice)
Assay: ITC

Question: For “OsSUVH6 N-terminal peptide (OsSUVH6N, residues 287 to 304)”, which Kd is on record?
Answer: 184 nM
